The Kd is the concentration at which binding is half-saturated.

The labels stand for the following.
B1: c-Crk N-terminal SH3 domain (134-191) analogue, dipeptide KK (154-155) replaced by Gly-[COS]-βAla (other)
chain: AEYVRALFDFNGNDEEDLPFGXGDILRIRDKPEEQWWNAEDSEGKRGMIPVPYVEKYR
modifications: not fully specified; Gly-[COS]-βAla unit (-NH-CH2-CO-S-CH2-CH2-CO-) in place of K154-K155; backbone thioester
notes: It is one of the 19 dipeptide positions within c-Crk(146-165); Positions count on murine c-Crk; X = -S-CH2CH2-CO- unit; Tested crude in a pooled array
B2: c-Crk N-terminal SH3 domain (134-191) analogue, dipeptide DL (150-151) replaced by Gly-[COS]-βAla (other)
chain: B1 chain with D17G, L18X, G21K, X22K
modifications: not fully specified; Gly-[COS]-βAla unit (-NH-CH2-CO-S-CH2-CH2-CO-) in place of D150-L151; backbone thioester
notes: Positions count on murine c-Crk; X = -S-CH2CH2-CO- unit; Tested crude in a pooled array
B3: c-Crk N-terminal SH3 domain (134-191) analogue, N^146D^147 replaced by Gly-[COS]-βAla (other)
chain: B1 chain with N13G, D14X, G21K, X22K
modifications: not fully specified; Gly-[COS]-βAla unit (-NH-CH2-CO-S-CH2-CH2-CO-) in place of N146-D147; backbone thioester
notes: Positions count on murine c-Crk; X = -S-CH2CH2-CO- unit; Tested crude in a pooled array; also called ND
B4: c-Crk N-terminal SH3 domain (134-191) analogue, dipeptide FK (153-154) replaced by Gly-[COS]-βAla (other)
chain: B1 chain with F20G, G21X, X22K
modifications: not fully specified; Gly-[COS]-βAla unit (-NH-CH2-CO-S-CH2-CH2-CO-) in place of F153-K154; backbone thioester
notes: as for B1
B5: c-Crk N-terminal SH3 domain (134-191) analogue, dipeptide PF (152-153) replaced by Gly-[COS]-βAla (other)
chain: B1 chain with P19G, F20X, G21K, X22K
modifications: not fully specified; Gly-[COS]-βAla unit (-NH-CH2-CO-S-CH2-CH2-CO-) in place of P152-F153; backbone thioester
notes: as for B1
B6: c-Crk N-terminal SH3 domain (134-191) analogue, dipeptide KG (155-156) replaced by Gly-[COS]-βAla (other)
chain: B1 chain with G21K, X22G, G23X
modifications: not fully specified; Gly-[COS]-βAla unit (-NH-CH2-CO-S-CH2-CH2-CO-) in place of K155-G156; backbone thioester
notes: as for B1
B7: Ac-CWAcp-PPPALPPKKR.amide, C3G-derived peptide designed for attachment to an affinity column (peptide)
peptide: CWPPPALPPKKR
modifications: N-terminal acetyl; ε-aminocaproic acid (Acp, B) at position 3; C-terminal amide; on the column the Cys side chain is coupled to iodoacetyl agarose (Sulfolink)
notes: also called Acetyl-CWAcp-C3G; Ac-CWBPPPALPPKKR.amide
B8: c-Crk N-terminal SH3 domain (134-191) analogue, dipeptide GD (156-157) replaced by Gly-[COS]-Gly (other)
chain: B1 chain with G21K, X22K, D24G
modifications: not fully specified; Gly-[COS]-Gly unit (-NHCH2CO-SCH2CO-) in place of G156-D157; backbone thioester (S in place of the NH of residue 157)
notes: Member of the nine-member Gly-[COS]-Gly array over cCrk(156-165); G156 stays Gly; Positions count on murine c-Crk; also called GD (Gly-[COS]-Gly array)
B9: c-Crk N-terminal SH3 domain (134-191) analogue, dipeptide IR (161-162) replaced by Gly-[COS]-Gly (other)
chain: B1 chain with G21K, X22K, I28G, R29G
modifications: not fully specified; Gly-[COS]-Gly unit (-NHCH2CO-SCH2CO-) in place of I161-R162; backbone thioester (S in place of the NH of residue 162)
notes: Member of the nine-member Gly-[COS]-Gly array over cCrk(156-165); Positions count on murine c-Crk; also called IR (Gly-[COS]-Gly array)
B10: c-Crk N-terminal SH3 domain (134-191) analogue, dipeptide KP (164-165) replaced by Gly-[COS]-Gly (other)
chain: B1 chain with G21K, X22K, K31G, P32G
modifications: not fully specified; Gly-[COS]-Gly unit (-NHCH2CO-SCH2CO-) in place of K164-P165; backbone thioester (S in place of the NH of residue 165)
notes: Member of the nine-member Gly-[COS]-Gly array over cCrk(156-165); Positions count on murine c-Crk; also called KP (Gly-[COS]-Gly array)
B11: c-Crk N-terminal SH3 domain (134-191) analogue, dipeptide RD (162-163) replaced by Gly-[COS]-Gly (other)
chain: B1 chain with G21K, X22K, R29G, D30G
modifications: not fully specified; Gly-[COS]-Gly unit (-NHCH2CO-SCH2CO-) in place of R162-D163; backbone thioester (S in place of the NH of residue 163)
notes: Member of the nine-member Gly-[COS]-Gly array over cCrk(156-165); Positions count on murine c-Crk; also called RD (Gly-[COS]-Gly array)
B12: c-Crk N-terminal SH3 domain (134-191) analogue, dipeptide DI (157-158) replaced by Gly-[COS]-Gly (other)
chain: B1 chain with G21K, X22K, D24G, I25G
modifications: not fully specified; Gly-[COS]-Gly unit (-NHCH2CO-SCH2CO-) in place of D157-I158; backbone thioester (S in place of the NH of residue 158)
notes: Member of the nine-member Gly-[COS]-Gly array over cCrk(156-165); Positions count on murine c-Crk; also called DI (Gly-[COS]-Gly array)
B13: c-Crk N-terminal SH3 domain (134-191) analogue, dipeptide DK (163-164) replaced by Gly-[COS]-Gly (other)
chain: B1 chain with G21K, X22K, D30G, K31G
modifications: not fully specified; Gly-[COS]-Gly unit (-NHCH2CO-SCH2CO-) in place of D163-K164; backbone thioester (S in place of the NH of residue 164)
notes: Member of the nine-member Gly-[COS]-Gly array over cCrk(156-165); Positions count on murine c-Crk; also called DK (Gly-[COS]-Gly array)
B14: c-Crk N-terminal SH3 domain (134-191) analogue, dipeptide RI (160-161) replaced by Gly-[COS]-Gly (other)
chain: B1 chain with G21K, X22K, R27G, I28G
modifications: not fully specified; Gly-[COS]-Gly unit (-NHCH2CO-SCH2CO-) in place of R160-I161; backbone thioester (S in place of the NH of residue 161)
notes: Member of the nine-member Gly-[COS]-Gly array over cCrk(156-165); Positions count on murine c-Crk; also called RI (Gly-[COS]-Gly array)
B15: c-Crk N-terminal SH3 domain (134-191) analogue, dipeptide LR (159-160) replaced by Gly-[COS]-Gly (other)
chain: B1 chain with G21K, X22K, L26G, R27G
modifications: not fully specified; Gly-[COS]-Gly unit (-NHCH2CO-SCH2CO-) in place of L159-R160; backbone thioester (S in place of the NH of residue 160)
notes: Member of the nine-member Gly-[COS]-Gly array over cCrk(156-165); Positions count on murine c-Crk; also called LR (Gly-[COS]-Gly array)
B16: c-Crk N-terminal SH3 domain (134-191) analogue, dipeptide IL (158-159) replaced by Gly-[COS]-Gly (other)
chain: B1 chain with G21K, X22K, I25G, L26G
modifications: not fully specified; Gly-[COS]-Gly unit (-NHCH2CO-SCH2CO-) in place of I158-L159; backbone thioester (S in place of the NH of residue 159)
notes: Member of the nine-member Gly-[COS]-Gly array over cCrk(156-165); Positions count on murine c-Crk; also called IL (Gly-[COS]-Gly array)

Where a chain is given by its changes, count along the chain named. In names and notes the source's numbering stands.

Sequence of BSA (P02769 25-607 limits assumed): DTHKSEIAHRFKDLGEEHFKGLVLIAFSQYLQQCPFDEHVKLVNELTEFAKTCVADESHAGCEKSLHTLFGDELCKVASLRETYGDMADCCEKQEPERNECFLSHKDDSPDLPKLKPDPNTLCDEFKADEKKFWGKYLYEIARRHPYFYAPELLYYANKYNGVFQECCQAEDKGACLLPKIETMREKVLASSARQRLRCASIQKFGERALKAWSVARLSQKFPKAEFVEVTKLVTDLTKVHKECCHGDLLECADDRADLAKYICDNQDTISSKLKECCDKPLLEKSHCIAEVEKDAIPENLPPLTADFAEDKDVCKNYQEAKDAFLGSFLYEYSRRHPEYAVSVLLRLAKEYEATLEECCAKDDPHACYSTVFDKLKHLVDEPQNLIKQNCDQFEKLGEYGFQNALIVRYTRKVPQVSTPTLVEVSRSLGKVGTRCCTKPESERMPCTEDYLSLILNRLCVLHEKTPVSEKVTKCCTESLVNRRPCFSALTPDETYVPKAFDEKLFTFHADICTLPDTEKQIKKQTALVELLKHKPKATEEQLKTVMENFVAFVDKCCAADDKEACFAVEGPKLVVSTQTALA

The target of one test is B7. In words: 19-member array on C3G peptide affinity column, MALDI MS readout.
For the molecule B1, the binding result is given as “no binding”. In the case of B2, the binding result is given as “no binding”.

B3: the binding result is given as “binds”. In the case of B4, the binding result was “no binding”. Still for that read-out and setting: next, B5: “no binding”; B6: “no binding”.

The target of another test is T1, synthetic murine cCrk N-terminal SH3 domain (residues 134-191) (murine, UniProt Q64010 134-191).
T1 construct: Made by total chemical synthesis and folded in HEPES/NaCl buffer; also called cCrk(134-191); c-Crk SH3
In words: tryptophan fluorescence titration in solution, 12 hours incubation. The procedure:
The resulting synthetic protein domain was then assayed for its affinity for two different proline-rich peptides. […] This change in solvent exposure leads to an increase in the fluorescence intensity of the tryptophan sidechain which can be monitored as a function of increasing ligand concentration (Feng et al. *Science* 1994.266, 1241–1245).
1994, 3, 1261–1266. The purified and lyophilized 58 residue polypeptide chain (0.2 mg) was folded by dissolving in 0.6 mL of 20 mM Hepes, 60 mM NaCl, pH 7.3 to produce a folded protein solution (~50 μM).
In turn, B7 had a Kd of 2.4 µM.

For the next test, the target named is BSA (UniProt P02769 25-607). Briefly: C3G peptide affinity column, stepwise NaCl washes, A280 and mass spectrometry. The procedure:
The column was washed with 4 mL each of 50 mM NaCl, 100 mM NaCl, 200 mM NaCl, 300 mM NaCl, 400 mM NaCl, 500 mM NaCl and 1000 mM NaCl, 0.1 M phosphate, pH 7.0 buffer. The column was then washed with 1 M NH_2OH 200 mM NH_4CO_3 pH 6.0 (4 mL) and finally eluted in 6M Gn.HCl 100 mM phosphate pH 6.5 (4 mL). Samples from all column fractions were monitored by absorbance at 280 nm and by HPLC.
B7: the binding result is given as “no binding”.

A further test addresses B7. In words: Gly-[COS]-Gly array on C3G peptide affinity column, MALDI MS readout (FIG. 27A).
Turning to B8, the binding result is “binds”.

As to B9, the binding result is listed as “binds”. Take B10: the binding result is “binds”. As for B11, the binding result is on record as “binds”. With B12, the binding result is “binds”.

In the case of B13, the binding result is “binds”. Turning to B14, the binding result is “binds”.

Turning to B15, the binding result is “binds”. Still for that read-out and setting: as for B16, the entry is “binds”.

The values are drawn from US6495314 (Scripps Research, dated 2002).
